In this data set the target is MBD2b (UniProt Q9UBB5 150-411). Put plainly: EMSA. (In general: In EMSA bound probe runs differently from free probe, usually more slowly.)
MBD2b, sequence (Q9UBB5 150-411): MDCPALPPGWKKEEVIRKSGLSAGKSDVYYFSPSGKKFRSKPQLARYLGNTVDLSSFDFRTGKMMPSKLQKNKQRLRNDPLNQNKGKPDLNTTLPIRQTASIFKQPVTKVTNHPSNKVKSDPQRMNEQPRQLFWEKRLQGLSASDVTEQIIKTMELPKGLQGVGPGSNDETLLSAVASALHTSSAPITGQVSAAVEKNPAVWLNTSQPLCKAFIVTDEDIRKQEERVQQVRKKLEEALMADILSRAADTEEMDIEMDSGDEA

B1: C76 (dsDNA)
DNA 1: CCTCACCATCTCAACCAATATTATATTACGCGTATATCGCGTATTTCGCGTTATAATATTGAGGGAGAAGTGGTGA
DNA 2: TCACCACTTCTCCCTCAATATTATAACGCGAAATACGCGATATACGCGTAATATAATATTGGTTGAGATGGTGAGG
Consider B1, for which the binding result is reported as “no binding”.

(Values after article PMC2887978.)
